Reference: PMC10641755, “Structural basis of aggregate binding by the AAA+ disaggregase ClpG” (The Journal of Biological Chemistry, 2023)

Key:
[1] = molecular target: Firefly Luciferase, heat-aggregated (Firefly) [luciferase: P08659]
[2] = molecular target: ClpG N1 core domain (N1∗), residues 1 to 46 (Pseudomonas aeruginosa, 15N (13C) isotope labelled for NMR); test: NMR titration; unlabeled peptide 134 titrated to 15N-labeled N1∗ (80 μM N1∗, up to 240 μM peptide), 1H,15N-HSQC chemical shift perturbations, 298 K, 50 mM NaH2PO4 pH 6.5, 50 mM KCl, 2 mM DTT; conditions: both partners purified

Chain of Firefly Luciferase, heat-aggregated (Firefly) [luciferase: P08659] (P08659 whole entry, the tested form may be a part): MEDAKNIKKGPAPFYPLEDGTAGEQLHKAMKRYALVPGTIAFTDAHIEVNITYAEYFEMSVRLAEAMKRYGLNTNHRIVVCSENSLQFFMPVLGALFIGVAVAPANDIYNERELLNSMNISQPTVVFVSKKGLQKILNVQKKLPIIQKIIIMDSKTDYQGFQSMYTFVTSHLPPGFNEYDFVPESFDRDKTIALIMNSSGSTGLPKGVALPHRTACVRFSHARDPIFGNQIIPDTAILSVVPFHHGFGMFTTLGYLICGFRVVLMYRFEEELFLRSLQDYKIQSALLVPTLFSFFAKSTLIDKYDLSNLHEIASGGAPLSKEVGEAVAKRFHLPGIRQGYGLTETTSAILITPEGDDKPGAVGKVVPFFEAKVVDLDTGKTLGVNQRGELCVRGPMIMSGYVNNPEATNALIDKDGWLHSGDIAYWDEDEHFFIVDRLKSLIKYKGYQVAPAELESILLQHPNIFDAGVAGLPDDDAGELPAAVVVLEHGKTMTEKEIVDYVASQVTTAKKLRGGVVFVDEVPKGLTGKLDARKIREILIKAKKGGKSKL

Molecule | stimulation of ClpG ATPase activity by aggregated Luciferase [1] [fold] | Kd [2] [µM]
ClpG WT (P. aeruginosa ClpGGI) (enzyme) | 1.4 | 
CWFLRYLKASKVPLN (Unlabeled peptide) [Peptide 134] |  | > 50
